Series [1] is described as follows: Average drug loading (DAR, drug to antibody ratio) from LC/MS of reduced, deglycosylated conjugates. Particulars: conjugate with trastuzumab (TBS); average number of payload molecules per antibody. An excerpt:
The immunoconjugates prepared as described above were characterized by LC/MS, as illustrated in FIG. 1 for one immunoconjugate. […] The conjugates were characterized in terms of average drug loading for a sample (DAR, drug to antibody ratio) and aggregation (expressed in %).
The DAR value is extrapolated from LC-MS data for reduced and deglycosylated samples. […] HPLC separates the antibody into light and heavy chains, and separates the heavy chain (HC) and light chain (LC) according to the number of Linker-Payload groups per chain. Mass spectral data enables identification of the component species in the mixture, e.g., LC, LC+1, LC+2, HC, HC+1, HC+2, etc. From the average loading on the LC and HC chains, the average drug to antibody ratio (DAR) can be calculated for an ADC (see FIG. 1B). The DAR for a given conjugate sample represents the average number of drug (payload) molecules attached to a tetrameric antibody containing two light chains and two heavy chains.

Series [2] in a line: Aggregation of immunoconjugates by analytical size exclusion chromatography. Particulars: conjugate with trastuzumab (TBS); Superdex 200 5/150 GL run in PBS. The format is physicochemical. On the procedure:
Aggregation was measured by analytical size exclusion chromatography (Superdex 200 5/150 GL run in PBS). It was observed that the extent of aggregation depends on the Linker-Payload and the DAR. […] Table 4 also indicates whether the linking group for each conjugate is stable or cleavable.

Structures are written as SMILES. Values joined by “and” are separate entries in the source; they are usually repeats but may differ in a detail not shown here. Equal entries are not always repeated.

This is an account of results in patent publication US9498540B2, “Cell proliferation inhibitors and conjugates thereof” (NOVARTIS AG, priority 2013, dated 2016).

Consider `O=C(NC[C@@H](O)CO)N(C[C@@H]1CNC[C@@H]1F)[C@@H](c1nc(-c2cc(F)ccc2F)cn1Cc1ccccc1)C1CCOCC1` [Compound 68], for which the DAR in series [1] is reported as 4.6. The Aggregation % in series [2] turned out to be 62.6%.
The matching figures for `CC(C)(C)[C@H](c1nc(-c2cc(F)ccc2F)cn1Cc1cccc(F)c1)N(C[C@@H]1CNC[C@@H]1F)C(=O)CSCCN` [Compound 16]: 7.4 and 20.4%.
Consider `C[C@H](O)C(=O)N(CC[C@H](N)CF)[C@@H](c1nc(-c2cc(F)ccc2F)cn1CC1CCOCC1)C(C)(C)C` [Compound 11], for which, in series [1], the DAR turned out to be 4. The molecule also yielded an Aggregation % in series [2] of 4%.
As to `C[C@H](O)C(=O)N(C[C@@H]1CNC[C@@H]1F)[C@@H](c1nc(-c2cc(F)ccc2F)cn1Cc1ccccc1)C1CCS(=O)(=O)CC1` [Compound 38], the DAR in series [1] stood at 5.8. Also, the Aggregation % in series [2] was determined as 67.2%.
For the molecule `CCOC(C)(C)[C@H](c1nc(-c2cc(F)ccc2F)cn1Cc1cccc(F)c1)N(C[C@@H]1CNC[C@@H]1F)C(=O)[C@H](C)O` [Compound 75], the DAR in series [1] is reported as 2.9. In series [2], this molecule came in with an Aggregation % of 69.4%.
On the same counts, the results for `C[C@H](O)C(=O)N(CC[C@H](N)CF)[C@@H](c1nc(-c2cc(F)cc(F)c2F)cn1Cc1ccccc1)C(C)(C)C` [Compound 62] are 2 and 48.7%.
For the molecule `CC(C)(C)[C@H](c1nc(-c2cc(F)ccc2F)cn1Cc1ccccc1)N(CC[C@H](N)CF)C(=O)N1CCN(S(C)(=O)=O)CC1` [Compound 42], in series [1], the DAR is 6. In series [2], this molecule had an Aggregation % of 2.4%.
Consider `CC(C)(C)[C@@H](NC(=O)c1csc(CN)n1)c1nc(-c2cc(F)ccc2F)cn1Cc1ccccc1` [Compound 45], for which the DAR in series [1] was determined as 4.8. The Aggregation % in series [2] is given as 22%.
The matching figures for `C[C@H](O)C(=O)N(CC[C@@H](N)CF)[C@@H](c1nc(-c2cc(F)ccc2F)nn1Cc1ccccc1)C(C)(C)C` [Compound 8]: 3.2 and 1.4%.
In the case of `COC(C)(C)[C@H](c1nc(-c2cc(F)ccc2F)cn1Cc1cccc(F)c1)N(C[C@@H]1CNC[C@@H]1F)C(=O)[C@H](C)O` [Compound 54], the DAR in series [1] is listed as 3.1. Moreover, the Aggregation % in series [2] amounted to 2.5%.
On the same counts, the results for `O=C(c1ccccn1)N(C[C@@H]1CN[C@H](CF)C1)[C@@H](c1nc(-c2cc(F)ccc2F)cn1Cc1ccccc1)C1CCOCC1` [Compound 65] are 3.2 and 11.4%.
With `C[C@H](O)C(=O)N(C[C@@H]1CNC[C@@H]1F)[C@@H](c1nc(-c2cc(F)ccc2F)cn1Cc1cccc(N)n1)C1CCOCC1` [Compound 66], the DAR in series [1] turned out to be 3.6. Moreover, in series [2], the Aggregation % turned out to be 64.5%.
Consider `CC(C)(C)[C@H](c1nc(-c2cc(F)ccc2F)nn1Cc1ccccc1)N(CCCN)C(=O)c1cccnc1` [Compound 64], for which the DAR in series [1] was determined as 2.9. Also, in series [2], the Aggregation % is recorded as 49.3%.
On the same counts, the results for `CC(C)(C)[C@H](c1nc(-c2cc(F)ccc2F)cn1Cc1ccccc1)N(CC[C@H](N)CF)C(=O)CN` [Compound 1] are 5 and 75.8%.
For the molecule `C[C@@H]1CN(C(=O)N(CC[C@H](N)CF)[C@@H](c2nc(-c3cc(F)cc(F)c3)nn2Cc2ccccc2)C(C)(C)C)C[C@H](C)O1` [Compound 52], the DAR in series [1] came to 5.2. For the same molecule, the Aggregation % in series [2] was found to be 47.4%.
With `C[C@@H](CN)NC(=O)N(C[C@@H]1CNC[C@@H]1F)[C@@H](c1nc(-c2cc(F)ccc2F)cn1Cc1ccccc1)C1CCOCC1` [Compound 19], in series [1], the DAR turned out to be 4.7. The molecule also yielded an Aggregation % in series [2] of 74.6%.
With `CC(C)(C)[C@H](c1nc(-c2cc(F)ccc2F)nn1Cc1ccccc1)N(CC[C@@H](N)CF)C(=O)N1CCSCC1` [Compound 43], in series [1], the DAR stood at 6.1. Besides, the Aggregation % in series [2] amounted to 7.7%.
For `COC(C)(C)[C@H](c1nc(-c2cc(Cl)ccc2F)cn1Cc1cccc(F)c1)N(C[C@@H]1CN[C@H](CF)C1)C(=O)c1cc(C)nn1C` [Compound 59], in series [1], the DAR is reported as 5.2. This molecule also gave an Aggregation % in series [2] of 71%.
On to `O=C(CCS)N(C[C@@H]1CNC[C@@H]1F)[C@@H](c1nc(-c2cc(F)ccc2F)cn1Cc1ccccc1)C1CCOCC1` [Compound 15], for which, in series [1], the DAR amounted to 3.7. Also, the Aggregation % in series [2] is 3.5%.
In the case of `CC(C)(C)[C@H](c1nc(-c2cc(F)ccc2F)nn1Cc1ccccc1)N(CCCN)C(=O)N1CCN(S(C)(=O)=O)CC1` [Compound 44], the DAR in series [1] came out at 4.8. In series [2], this molecule yielded an Aggregation % of 41%.
As for `CC(C)(C)[C@H](c1nc(-c2cc(F)ccc2F)nn1Cc1ccccc1)N(CCCN)C(=O)CO` [Compound 50], the DAR in series [1] was 2.8. Moreover, the Aggregation % in series [2] is 40%.
Consider `C[C@H](O)C(=O)N(C[C@@H]1CNC[C@@H]1F)[C@@H](c1nc(-c2cc(F)ccc2F)cn1Cc1ccccc1)C(C)(C)C` [Compound 72], for which the DAR in series [1] was found to be 5.2. The same molecule returned an Aggregation % in series [2] of 45%.
For the molecule `C[C@H](O)C(=O)N(C[C@@H]1CNC[C@H]1O)[C@@H](c1nc(-c2cc(F)ccc2F)cn1Cc1ccccc1)C1CCOCC1` [Compound 48], the DAR in series [1] is 4.4 and 5.2. Also, the Aggregation % in series [2] is 63.8% and 35.3%.
Take `C[C@H](O)C(=O)N(CC[C@@H](C)N)[C@@H](c1nc(-c2cc(F)ccc2F)cn1Cc1ccccc1)C(C)(C)C` [Compound 35]: the DAR in series [1] is given as 3. In series [2], the Aggregation % came out at 44.3%.
Consider `O=C(N1C[C@@H](O)[C@@H](O)C1)N(C[C@@H]1CNC[C@@H]1F)[C@@H](c1nc(-c2cc(F)ccc2F)cn1Cc1ccccc1)C1CCOCC1` [Compound 56], for which the DAR in series [1] turned out to be 4.1. In series [2], this molecule gave an Aggregation % of 45.1%.
Take `CC(C)(C)[C@H](c1nc(-c2cc(F)ccc2F)nn1Cc1ccccc1)N(CCCN)C(=O)N1CCOCC1` [Compound 61]: the DAR in series [1] turned out to be 2. This molecule also yielded an Aggregation % in series [2] of 46.1%.
Consider `C[C@H](O)C(=O)N(CC[C@H](N)CF)[C@H](c1nc(-c2cc(F)ccc2F)cn1Cc1ccccc1)C1CCS(=O)(=O)CC1` [Compound 24], for which the DAR in series [1] is recorded as 1.2. The same molecule yielded an Aggregation % in series [2] of 54.2%.
The matching figures for `CC(C)(C)[C@H](c1nc(-c2cc(F)ccc2F)cn1Cc1ccccc1)N(CC[C@H]1COCCN1)C(=O)CO` [Compound 5]: 5.4 and 48.7%.
Turning to `C[C@H](O)C(=O)N(CCCN)[C@@H](c1nc(-c2cc(F)ccc2F)cn1Cc1ccccc1)C(C)(C)C` [Compound 20], the DAR in series [1] turned out to be 5.2. In series [2], this molecule had an Aggregation % of 63.5%.
In the case of `N[C@H](CF)CCN(C(=O)CO)[C@@H](c1nc(-c2cc(F)ccc2F)cn1Cc1ccccc1)C1CCOCC1` [Compound 23], the DAR in series [1] turned out to be 3.1. Further, in series [2], the Aggregation % turned out to be 66.8%.
For the molecule `CSCCC(=O)N(C[C@@H]1CNC[C@@H]1F)[C@@H](c1nc(-c2cc(F)ccc2F)cn1Cc1ccccc1)C1CCOCC1` [Compound 39], in series [1], the DAR worked out at 3.2. In series [2], the Aggregation % is 68.5%.
For `CC(C)(C)[C@H](c1nc(-c2cc(F)ccc2F)cn1Cc1ccccc1)N(CC[C@H](N)CF)C(=O)NO` [Compound 22], the DAR in series [1] came to 6. The Aggregation % in series [2] was 84.5%.
For the molecule `CC(C)(C)[C@H](c1nc(-c2cc(F)ccc2F)cn1Cc1ccccc1)N(CC[C@H]1COCCN1)C(=O)N1CCOCC1` [Compound 63], in series [1], the DAR came out at 4. Moreover, the Aggregation % in series [2] came out at 53.2%.
As for `COC(C)(C)[C@H](c1nc(-c2cc(Cl)ccc2F)cn1Cc1cccc(F)c1)N(C[C@@H]1CN[C@H](CF)C1)C(=O)[C@@H]1CCCO1` [Compound 13], in series [1], the DAR is given as 5.8. The same molecule yielded an Aggregation % in series [2] of 0.7%.
With `C[C@@H]1CN(C(=O)N(C[C@@H]2CNC[C@@H]2F)[C@@H](c2nc(-c3cc(F)ccc3F)nn2Cc2cccc(F)c2)C(C)(C)C)C[C@H](C)O1` [Compound 26], in series [1], the DAR stood at 2.6. The molecule also showed an Aggregation % in series [2] of 33.5%.
For the molecule `CC(C)(C)[C@H](c1nc(-c2cc(F)ccc2F)cn1Cc1ccccc1)N(CCC1(N)CC1)C(=O)[C@@H]1CCCO1` [Compound 30], the DAR in series [1] amounted to 3.9. Moreover, the Aggregation % in series [2] is 2.5%.
Consider `C[C@H](O)C(=O)N(C[C@@H]1CNC[C@@H]1F)[C@H](c1nc(-c2cc(F)ccc2F)cn1Cc1ccccc1)C1CCS(=O)(=O)CC1` [Compound 47], for which, in series [1], the DAR was 5.1. The molecule also showed an Aggregation % in series [2] of 65.2%.
Turning to `CNC(=O)N(C[C@@H]1CNC[C@@H]1F)[C@@H](c1nc(-c2cc(F)ccc2F)cn1Cc1cccc(F)c1)C(C)(C)C` [Compound 40], the DAR in series [1] is recorded as 4. Besides, the Aggregation % in series [2] is reported as 9.3%.
With `CSCCC(=O)N(C[C@@H]1CNC[C@@H]1F)[C@@H](c1nc(-c2cc(F)ccc2F)cn1Cc1cccc(F)c1)C(C)(C)C` [Compound 9], the DAR in series [1] came to 6. Besides, the Aggregation % in series [2] came to 84.9%.
Regarding `O=C(NC[C@H](O)CO)N(C[C@@H]1CNC[C@@H]1F)[C@@H](c1nc(-c2cc(F)ccc2F)cn1Cc1ccccc1)C1CCOCC1` [Compound 74], the DAR in series [1] was determined as 3. In addition, in series [2], the Aggregation % was 39.1%.
Regarding `C[C@H](O)C(=O)N(CC[C@H](N)CF)[C@@H](c1nc(-c2cc(F)ccc2F)cn1Cc1ccccc1)C(C)(C)C` [Compound 71], the DAR in series [1] came out at 2.9. The same molecule returned an Aggregation % in series [2] of 2.6%.
